Assay results published in patent US20140243502.

Legend:
[1] = biological target: recombinant tick anticoagulant peptide (rTAP) (UniProt P17726)
[2] = biological target: non-targeted mut-scFv-TAP (UniProt P17726)
[3] = tested on: scFv anti-LIBS-TAP fusion protein

factor Xa (fXa)
cleavage of chromogenic substrate (spectrozyme FXa #222) by factor Xa, OD at 405 nm [1]: inhibition of factor Xa activity by rTAP, scFv anti-LIBS-TAP, and non-targeted mut-scFv-TAP, but not by scFv anti-LIBS
cleavage of chromogenic substrate (spectrozyme FXa #222) by factor Xa, OD at 405 nm [2]: inhibition of factor Xa activity by rTAP, scFv anti-LIBS-TAP, and non-targeted mut-scFv-TAP, but not by scFv anti-LIBS
cleavage of chromogenic substrate (spectrozyme FXa #222) by factor Xa, OD at 405 nm [3]: inhibition of factor Xa activity by rTAP, scFv anti-LIBS-TAP, and non-targeted mut-scFv-TAP, but not by scFv anti-LIBS
